From patent US20210380703A1 (RIGEL PHARMACEUTICALS, published 2021)
Numbering of substitutions follows the chain as printed.

B1: 373_F08 (antibody, V domains shown)
VH: EVQLLESGGGLVQPGGSLRLSCAASGFTFSSYSMNWVRQAPGKGLEWVSGINYNGGYTSYADSVKGRFTISRDNSKNTLYLQMNSLRAEDTAVYYCARGANWHDTALDYWGQGTLVTVSS
VL: DIQMTQSPSSLSASVGDRVTITCRASQSILTYLNWYQQKPGKAPKLLIYAATSRASGVPSRFSGSGSGTDFTLTISSLQPEDFATYYCQQSYDTPLTFGGGTKVEIK
B2: 366_B12 (antibody, V domains shown)
VH: B1 VH with S49A, G55S, T58K, S59G, G99S
VL: B1 VL with L33V, T94N
B3: 370_A12 (antibody, V domains shown)
VH: B1 VH with S33G, S49A, G99S
VL: B1 VL with R54L, T94S
B4: 370_C07 (antibody, V domains shown)
VH: B1 VH with S49A, G50N, T58K, N101T, A106H
VL: B1 VL with T31S, A55H, D93E, T94S
B5: 373_G08 (antibody, V domains shown)
VH: B1 VH with S30D, G50N
VL: B1 VL with R54L, T94S
B6: 374_C12 (antibody, V domains shown)
VH: B1 VH with S49A, T58K
VL: B1 VL with L47V, Y92D, D93N, T94S
B7: 372_F03 (antibody, V domains shown)
VH: B1 VH with S33G, S49A, G99S
VL: B1 VL with T31S, L47V
B8: 371_E12 (antibody, V domains shown)
VH: B1 VH with S30D, G55S, T58K, N101T, A106H
VL: B1 VL with T31S, R54L
B9: 376_C06 (antibody, V domains shown)
VH: B1 VH with S33G, S49A, G99S, N101T
VL: B1 VL with T31S, L47V, T94S
B10: 374_E05 (antibody, V domains shown)
VH: B1 VH with S49A, G99S
VL: B1 VL with T31S, Y32F, L33V, L47V, D93N, T94L
B11: 374_B04 (antibody, V domains shown)
VH: B1 VH with G50N, G55S, S59G, G99S
VL: B1 VL with L30V, T31S, A51V, D93E, T94S
B12: 365_A12 (antibody, V domains shown)
VH: B1 VH with S33G, N35H, S49A, R98K, G99S, A106H
VL: B1 VL with L33V, A55H, D93E, T94N
B13: 367_A02 (antibody, V domains shown)
VH: B1 VH with S30D, S33G, G50S, G55S, T58K, S59G, N101T, A106H
VL: B1 VL with L30I, T31S, A51V
B14: 373_H03 (antibody, V domains shown)
VH: B1 VH with G55S, T58K
VL: B1 VL with T31S, A51T, D93E, T94N
B15: 369_H08 (antibody, V domains shown)
VH: B1 VH with S49A, G55S, T58K, N101T, A106H
VL: B1 VL with T31S, L33V, L47V, R54L, D93E, T94S
B16: 374_G05 (antibody, V domains shown)
VH: B1 VH with G50N, G55S, T58K, S59G, N101T, A106H
VL: B1 VL with L30I, T31S, T94L
B17: 374_D08 (antibody, V domains shown)
VH: B1 VH with S30D, S33G, G55S, S59G, G99S, A106H
VL: B1 VL with A55H, D93E, T94S
B18: 368_G03 (antibody, V domains shown)
VH: B1 VH with G55S, N101T
VL: B1 VL with T31S, L47V
B19: 370_H01 (antibody, V domains shown)
VH: B1 VH with G55S, T58K, S59G, G99S
VL: B1 VL with L30I, T31S, A51V
B20: 371_F09 (antibody, V domains shown)
VH: B1 VH with S49A, N101T, A106H
VL: B1 VL with T94N
B21: 372_A04 (antibody, V domains shown)
VH: B1 VH with S30D, G55S, G99S
VL: B1 VL with L47V, D93E
B22: 369_F09 (antibody, V domains shown)
VH: B1 VH with S33G, N35H, S49A, N101T, A106H
VL: B1 VL with L33V, T94S
B23: 373_F07 (antibody, V domains shown)
VH: B1 VH with G55S, T58K, N101T, A106H
VL: B1 VL with T31S, R54L, D93E
B24: 374_C09 (antibody, V domains shown)
VH: B1 VH with S30D, S33G, G50S, T58K, S59G, A106H
VL: B1 VL with L30V, T31S, L47V, D93E, T94L
B25: 370_D03 (antibody, V domains shown)
VH: B1 VH with S49A, G50S, N101T, A106H
VL: B1 VL with L30I, T94L
B26: 365_E02 (antibody, V domains shown)
VH: B1 VH with S49A, G50N, R98K, G99S, N101T, A106H
VL: B1 VL with L30I, T31S, D93E, T94N
B27: 370_E04 (antibody, V domains shown)
VH: B1 VH with S49A, G50N, T58K, S59G, N101T, A106H
VL: B1 VL with A51V, R54L, A55H, D93E
B28: 369_H12 (antibody, V domains shown)
VH: B1 VH with S49A, T58K, N101T, A106H
VL: B1 VL with L30V, L33V, L47V, T94S
B29: 369_H06 (antibody, V domains shown)
VH: B1 VH with S33G, S49A, G50N, T58K, G99S
VL: B1 VL with L30V, T31S, L33V
B30: 370_F12 (antibody, V domains shown)
VH: B1 VH with S31D, S49A, G50N, S59G, N101T, A106H
VL: B1 VL with T31S, T52S, R54L, A55Q, T94S
B31: 372_F09 (antibody, V domains shown)
VH: B1 VH with S30D, S49A, G50N, G55S, T58K, S59G, G99S
VL: B1 VL with L47V, R54L, D93S, T94S
B32: 370_C06 (antibody, V domains shown)
VH: B1 VH with S49A, G50N, T58K, N101T, A106H
VL: B1 VL with L33V, T52S, R54L, A55Q, D93S
B33: 374_C08 (antibody, V domains shown)
VH: B1 VH with S30D, S33G, G55S, T58K, G99S, N101T
VL: B1 VL with T31S, L33V, A51V, T94S
B34: 369_G01 (antibody, V domains shown)
VH: B1 VH with G50N, G55S, T58K, G99S
VL: B1 VL with T31S, L33V, D93S, T94S
B35: 373_C07 (antibody, V domains shown)
VH: B1 VH with S30D, S49A, G55S, A106H
VL: B1 VL with L47V, D93E
B36: 371_B01 (antibody, V domains shown)
VH: B1 VH with S30D, G50N, G55S, S59G, N101T, A106H
VL: B1 VL with T31S, L33V, R54L, T94L
B37: 369_C12 (antibody, V domains shown)
VH: B1 VH with S33G, S49A, G50N, T58K, S59G, N101T, A106H
VL: B1 VL with A55H
B38: 371_B07 (antibody, V domains shown)
VH: B1 VH with S30D, S49A, G99S
VL: B1 VL with L33V, D93E, T94L
B39: 374_B03 (antibody, V domains shown)
VH: B1 VH with S30D
VL: B1 VL with L47V, T94S
B40: 373_B04 (antibody, V domains shown)
VH: B1 VH with S33G, S49A, G55S, T58K, S59G, G99S
VL: B1 VL with D93E
B41: 374_C01 (antibody, V domains shown)
VH: B1 VH with S30D, S33G, G55S, T58K
VL: B1 VL with D93E
B42: 367_H06 (antibody, V domains shown)
VH: B1 VH with S33G, G50N, S59G, G99S, A106H
VL: B1 VL with L30I
B43: 367_H11 (antibody, V domains shown)
VH: B1 VH with S33G, S49A, T58K, S59G, G99S
VL: B1 VL with L30I, T31S, L33V, L47V, D93N, T94S
B44: 370_C05 (antibody, V domains shown)
VH: B1 VH with S49A, G55S, S59G, G99S
VL: B1 VL with T31S, L33V, L47V, D93N, T94S
B45: 372_B09 (antibody, V domains shown)
VH: B1 VH with G50S, G55S, N101T, A106H
VL: B1 VL with D93E

Columns and labels:
[1] = biological target: ACVR2A on primary human myotubes (human, UniProt P27037 20-513); assay: cell-based or functional assay
Target sequence in this assay (P27037 20-513): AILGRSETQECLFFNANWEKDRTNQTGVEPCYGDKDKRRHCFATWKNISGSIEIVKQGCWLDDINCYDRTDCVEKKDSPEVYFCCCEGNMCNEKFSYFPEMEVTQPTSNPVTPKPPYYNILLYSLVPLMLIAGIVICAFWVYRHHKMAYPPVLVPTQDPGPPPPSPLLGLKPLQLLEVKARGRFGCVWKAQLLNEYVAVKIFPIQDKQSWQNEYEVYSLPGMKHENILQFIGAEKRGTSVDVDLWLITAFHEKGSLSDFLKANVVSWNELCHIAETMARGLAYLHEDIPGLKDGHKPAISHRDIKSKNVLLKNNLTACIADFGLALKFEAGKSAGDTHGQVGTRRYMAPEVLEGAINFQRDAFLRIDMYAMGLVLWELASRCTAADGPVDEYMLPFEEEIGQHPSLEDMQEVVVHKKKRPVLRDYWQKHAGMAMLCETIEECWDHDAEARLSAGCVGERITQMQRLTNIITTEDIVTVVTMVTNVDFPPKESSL

[2] = biological target: ACVR2A on primary human myotubes (human, UniProt P27037 20-513); assay: cell-based or functional assay; remark: listed apart in the source
Target sequence in this assay (P27037 20-513): as above

Binder | Phospho-SMAD3 Human Skeletal Muscle GDF8 [1] | Phospho-SMAD3 Human Skeletal Muscle GDF8 [2]
B1 | 0.005 | 
B2 |  | 0.0392
B3 |  | 0.0632
B4 | 0.0044 | 
B5 | 0.0057 | 
B6 | 0.027 | 
B7 |  | 0.0646
B8 | 0.0374 | 
B9 |  | 0.0107
B10 |  | 0.0497
B11 |  | 0.0093
B12 |  | 0.903
B13 | 0.159 | 
B14 | 0.0129 | 
B15 | 0.0308 | 
B16 |  | 0.0132
B17 |  | 0.23
B18 | 0.299 | 
B19 |  | 0.0093
B20 | 0.0311 | 
B21 |  | 0.0193
B22 | 0.0325 | 
B23 | 0.0069 | 

Binder | Phospho-SMAD3 Human Skeletal Muscle GDF8 [1] | Phospho-SMAD3 Human Skeletal Muscle GDF8 [2]
B24 | 0.189 | 
B25 | 0.0165 | 
B26 |  | 0.341
B27 | 0.0136 | 
B28 | 0.0303 | 
B29 |  | 0.0068
B30 | 0.0066 | 
B31 |  | 0.018
B32 | 0.0111 | 
B33 |  | 0.585
B34 |  | 0.0116
B35 | 0.0048 | 
B36 | 0.0076 | 
B37 | 0.0094 | 
B38 |  | 0.0402
B39 | 0.027 | 
B40 |  | 0.0093
B41 | 1.11 | 
B42 |  | 0.108
B43 |  | 0.0703
B44 |  | 0.0082
B45 | 0.0182 | 
